# Assay results published in patent US7192735B2, “Phosphopantetheinyl transferases and uses thereof” (President & Fellows of Harvard College, priority 1995, dated 2007).
# Where “and” joins values, the source holds several entries; their conditions need not be identical. Equal entries are not always repeated. Entries after “also recorded” stand apart in the source; their conditions may differ. Where two headings read alike, the source gives them in different places.
# Legend:
# [1] = test system: His6-PCP (peptidyl carrier protein domain of TycA); assay: [3H]-4'-phosphopantetheine transfer radioassay, His6-PCP substrate; conditions: for phosphopantetheinylation of His6-PCP: 25 μM His6-PCP, 60 min at 37° C., FIG. 11
# [2] = molecular target: E. coli FAS apo-ACP (Escherichia coli, UniProt P0A6A8); conditions: for phosphopantetheinylation of ACP: 25 μM ACP, 60 min at 37° C., FIG. 11
# [3] = molecular target: T1, EntF (Escherichia coli, UniProt P11454); assay: [3H]-4'-phosphopantetheine incorporation into EntF; format: biochemical, E. coli; conditions: for time course of modification of EntF: EntD 100 nM, ACPS and o195 at 15-fold higher concentrations, FIG. 14A; for phosphopantetheinylation of EntF: FIG. 12
# T1 construct: made in house
# Experimental: A time course of EntD-catalyzed incorporation of radiolabel into EntF was performed.
# [4] = test system: Streptomycete ACPs; assay: modification of apo-form of Streptomycete ACPs; format: biochemical
# [5] = test system: apo-Dcp; assay: in vitro phosphopantetheinylation of D-Alanyl carrier protein; format: biochemical, Lactobacillus casei
# Experimental: In another example, varying concentrations of apo-Dcp were incubated with ACPS at 37° C. to determine extent of phosphopantetheinylation.
# The assays were incubated overnight at 37° C.
# The [^3H] holo-Dcp formed was quantitated by dividing dpm by specific activity of pantetheinyl moiety of CoA which is equal to 4.83×10^14 dmp/mol.
# [6] = molecular target: T2, apo-ACP (Escherichia coli, UniProt P0A6A8+P24224); conditions: 50 μM apo-ACP, 1.8 μM ACPS, 210 μM [3H]CoA, 36 hour, 37° C., replicates
# [7] = molecular target: T2, apo-ACP; conditions: for Km: steady-state kinetics, [3H]CoA radioassay
# [8] = molecular target: T3, SrfB1 (Bacillus subtilis, UniProt Q04747); assay: [14C] amino acid activation by holo-SrfB1 formed with Sfp; format: biochemical; conditions: 2 μM apo-SrfB1, 1.3 μM Sfp, 200 μM CoASH, FIG. 15
# T3 construct: hexa-histidine (His6, from pPROEX-1) (N); made in house; host or cells: E. coli AG1574 (plasmid pML 118)
# Experimental: The reaction was performed as follows. Apo-SrfB1 (2 μM) was incubated with 200 μM CoASH, 75 mM Tris.HCl pH 8.0, 10 mM MgCl2, 25 mM DTT and 1.3 μM Sfp for 15 min at 37° C. to generate holo-SrfB1. To the SrfB1-Sfp reaction mixture, unlabeled amino acid (valine or aspartic acid) was added to 90 μM final concentration. ATP was added to a final concentration of 2 mM, followed by 0.5 μCi [^14C]Val (281 Ci/mol) or [^14C]Asp (207 Ci/mol). The reaction (115 μL) was incubated for 15 min at 37° C., then stopped by the addition of 800 μL 10% TCA with 15 μL of a 25 mg/mL BSA solution as carrier. The precipitate was collected by centrifugation, washed with 10% TCA, dissolved in 150 μL Tris base, and then counted by liquid scintillation.
# Target sequence in this assay (Q04747 92-1307): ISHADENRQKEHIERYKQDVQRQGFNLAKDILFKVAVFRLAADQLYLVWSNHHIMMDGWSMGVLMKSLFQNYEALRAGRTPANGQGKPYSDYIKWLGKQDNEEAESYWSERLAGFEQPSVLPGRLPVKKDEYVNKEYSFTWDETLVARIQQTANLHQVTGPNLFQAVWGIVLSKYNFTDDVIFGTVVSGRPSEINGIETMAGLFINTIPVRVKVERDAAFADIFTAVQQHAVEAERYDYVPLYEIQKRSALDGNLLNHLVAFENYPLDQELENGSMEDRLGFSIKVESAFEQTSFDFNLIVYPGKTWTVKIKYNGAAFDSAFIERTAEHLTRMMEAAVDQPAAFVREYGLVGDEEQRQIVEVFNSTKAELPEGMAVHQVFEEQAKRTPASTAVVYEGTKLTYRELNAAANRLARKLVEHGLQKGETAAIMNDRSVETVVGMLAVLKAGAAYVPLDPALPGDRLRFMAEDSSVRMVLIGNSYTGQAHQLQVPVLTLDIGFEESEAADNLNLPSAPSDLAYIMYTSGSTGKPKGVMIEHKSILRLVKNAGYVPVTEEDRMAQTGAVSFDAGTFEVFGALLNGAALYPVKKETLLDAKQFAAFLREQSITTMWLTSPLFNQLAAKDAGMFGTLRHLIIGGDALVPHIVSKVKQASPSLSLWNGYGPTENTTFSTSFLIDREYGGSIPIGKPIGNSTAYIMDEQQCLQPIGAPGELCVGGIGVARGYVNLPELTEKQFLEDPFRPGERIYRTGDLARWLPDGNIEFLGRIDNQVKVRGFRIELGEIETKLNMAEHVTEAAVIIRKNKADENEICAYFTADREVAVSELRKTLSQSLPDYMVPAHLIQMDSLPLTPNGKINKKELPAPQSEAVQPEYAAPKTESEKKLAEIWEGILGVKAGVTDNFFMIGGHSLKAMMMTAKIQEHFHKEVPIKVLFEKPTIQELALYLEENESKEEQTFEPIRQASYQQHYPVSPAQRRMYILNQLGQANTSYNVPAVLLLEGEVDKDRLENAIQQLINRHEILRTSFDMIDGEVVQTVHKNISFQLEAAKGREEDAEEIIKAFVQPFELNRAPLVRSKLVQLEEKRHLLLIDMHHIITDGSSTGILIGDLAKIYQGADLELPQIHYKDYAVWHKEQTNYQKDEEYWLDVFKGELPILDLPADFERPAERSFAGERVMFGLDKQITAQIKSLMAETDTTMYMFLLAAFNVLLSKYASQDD
# [9] = molecular target: T3, SrfB1; assay: [3H]-4'-phosphopantetheine incorporation into SrfB1; format: biochemical; conditions: FIG. 12
# Target sequence in this assay (P39135 whole entry): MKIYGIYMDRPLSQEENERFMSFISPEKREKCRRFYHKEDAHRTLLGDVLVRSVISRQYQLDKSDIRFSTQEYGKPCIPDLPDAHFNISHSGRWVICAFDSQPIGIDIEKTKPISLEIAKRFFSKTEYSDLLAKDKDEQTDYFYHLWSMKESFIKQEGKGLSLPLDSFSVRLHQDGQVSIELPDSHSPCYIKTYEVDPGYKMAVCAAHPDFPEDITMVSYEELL
# Target sequence in this assay (Q04747 92-1307): as the sequence (Q04747 92-1307) above
# T1 sequence (P11454 whole entry): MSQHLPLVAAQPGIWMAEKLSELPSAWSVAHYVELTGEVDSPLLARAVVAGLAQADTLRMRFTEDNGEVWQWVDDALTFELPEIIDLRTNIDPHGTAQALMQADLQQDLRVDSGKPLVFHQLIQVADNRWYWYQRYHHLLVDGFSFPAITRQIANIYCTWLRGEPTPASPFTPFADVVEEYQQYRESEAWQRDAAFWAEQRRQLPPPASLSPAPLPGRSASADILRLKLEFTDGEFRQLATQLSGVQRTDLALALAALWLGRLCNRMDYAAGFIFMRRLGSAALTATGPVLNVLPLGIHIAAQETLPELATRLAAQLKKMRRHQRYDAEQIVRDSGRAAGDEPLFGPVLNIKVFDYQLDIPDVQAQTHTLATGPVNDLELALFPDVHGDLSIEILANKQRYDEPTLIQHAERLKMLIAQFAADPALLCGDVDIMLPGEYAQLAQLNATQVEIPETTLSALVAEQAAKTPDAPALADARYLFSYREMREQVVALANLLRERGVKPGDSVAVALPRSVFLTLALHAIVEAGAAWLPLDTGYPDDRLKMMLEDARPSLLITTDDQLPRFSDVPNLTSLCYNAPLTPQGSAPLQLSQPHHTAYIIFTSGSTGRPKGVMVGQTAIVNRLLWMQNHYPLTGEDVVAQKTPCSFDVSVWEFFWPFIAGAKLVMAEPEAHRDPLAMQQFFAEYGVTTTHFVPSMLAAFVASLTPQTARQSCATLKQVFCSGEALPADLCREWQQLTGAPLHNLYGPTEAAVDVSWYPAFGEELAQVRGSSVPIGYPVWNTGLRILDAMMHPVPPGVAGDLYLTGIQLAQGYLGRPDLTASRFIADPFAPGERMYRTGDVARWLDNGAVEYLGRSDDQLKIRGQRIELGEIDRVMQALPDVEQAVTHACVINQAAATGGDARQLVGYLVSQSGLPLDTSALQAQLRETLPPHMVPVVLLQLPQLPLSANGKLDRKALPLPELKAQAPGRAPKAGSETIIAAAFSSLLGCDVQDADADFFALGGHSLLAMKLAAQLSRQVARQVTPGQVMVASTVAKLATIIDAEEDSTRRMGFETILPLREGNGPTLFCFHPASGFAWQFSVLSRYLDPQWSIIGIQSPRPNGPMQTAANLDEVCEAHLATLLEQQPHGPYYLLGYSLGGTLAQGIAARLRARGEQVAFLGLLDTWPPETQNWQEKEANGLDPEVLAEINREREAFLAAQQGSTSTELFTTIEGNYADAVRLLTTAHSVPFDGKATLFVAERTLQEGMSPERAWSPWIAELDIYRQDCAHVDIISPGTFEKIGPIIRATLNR
# Chain of E. coli FAS apo-ACP (P0A6A8 2-78): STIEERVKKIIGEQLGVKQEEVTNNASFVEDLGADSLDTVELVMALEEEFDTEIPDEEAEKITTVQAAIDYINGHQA
# T2 sequence (P0A6A8 2-78, one chain of several): as the sequence (P0A6A8 2-78) above
# Chain of His6-PCP (peptidyl carrier protein domain of TycA) (P09095 528-602): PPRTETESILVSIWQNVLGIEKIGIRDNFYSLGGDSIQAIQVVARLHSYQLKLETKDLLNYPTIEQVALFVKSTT
molecule,measurement,setting,value
"EntD: E. coli protein (23.6 kD) involved in enterobactin biosynthesis, phosphopantetheinyl transferase (protein) SRQPIGIDIEEIFSVQTARELTDNIITPAEHERLADCGLAFSLALTLAFSAKESAFKASEIQTDAGFLDYQIISWNKQQVIIHRENEMFAVHWQIKEKIVITLCQHD",phosphopantetheinylation of His6-PCP,[1],capable of transferring phosphopantetheine groups
same,phosphopantetheinylation of ACP,[2],capable of transferring phosphopantetheine groups
same,time course of modification of EntF,[3],modified effectively
same,phosphopantetheinylation of EntF,[3],capable of phosphopantetheinylating
"o195: E. coli ORF protein of unknown function, homologous to ACPS, shown to phosphopantetheinylate substrates (protein) MYRIVLGKVSTLSAAPLPPGLREQAPQGPRRERWLAGRALLSHTLSPLPEIIYGEQGKPAFAPEMPLWFNLSHSGDDIALLLSDEGEVGCDIEVIRPRANWRWLANAVFSLGEHAEMDAVHPDQQLEMFWRIWTRKEAIVKQRGGSAWQIVSVDSTYHSSLSVSHCQLENLSLAICTPTPFTLTADSVQWIDSVN",phosphopantetheinylation of His6-PCP,[1],capable of transferring phosphopantetheine groups
same,phosphopantetheinylation of ACP,[2],capable of transferring phosphopantetheine groups
same,time course of modification of EntF,[3],almost no modification
"ACPS: recombinant E. coli holo-acyl carrier protein synthase, 14 kDa dpj gene product overproduced in E. coli BL21(DE3)pDPJ (protein) MAILGLGTDIVEIARIEAVIARSGDRLARRVLSDNEWAIWKTHHQPVRFLAKRFAVKEAAAKAFGTGIRNGLAFNQFEVFNDELGKPRLRLWGEALKLAEKLGVANMHVTLADERHYACATVIIES","modification of apo-form of Streptomycete ACPs (frenolicin, granaticin, oxytetracycline, tetracenomycin)",[4],modifies the apo-form
same,phosphopantetheinylation of Dcp,[5],capable of phosphopantetheinylating Dcp
same,"radioactivity incorporated into the protein fraction, Dcp + ACPS","[5]; 40 μM apo-Dcp, 1.8 μM ACPS, 210 μM [3H]CoA, 36 hour, 37° C., replicates",1.04 × 10^6 (±0.93%) and 1.00 × 10^6 (±0.77%) and 0.98 × 10^6 (±0.95%)
same,amount of holo-Dcp formed versus amount of apo-Dcp,"[5]; varying apo-Dcp, 1.8 μM ACPS, overnight at 37° C., FIG. 4",increases linearly
same,time course of modification of apo-ACP,[2]; FIG. 14B,almost exclusive modification
same,time course of modification of EntF,[3],almost no modification
same,"radioactivity incorporated into the protein fraction, ACP + ACPS",[6],2.21 × 10^6 (±.63%) and 2.13 × 10^6 (±.65%) and 2.20 × 10^6 (±.64%)
same,substrate inhibition at apo-ACP concentrations,[7],greater than 2 μM
same,specific activity,"[7]; purification from E. coli BL21(DE3)pDPJ, fraction Crude extract",200 mU · mg^−1
same,specific activity,"[7]; purification from E. coli BL21(DE3)pDPJ, fraction DE-52",250 mU · mg^−1
same,specific activity,"[7]; purification from E. coli BL21(DE3)pDPJ, fraction SP-Sepharose",320 mU · mg^−1
same,specific activity,"[7]; purified protein, >95% purity",320 mU/mg
same,Km,[7]; read-out: Km value for CoA,50 µM
same,Km,[7]; read-out: Km value for apo-ACP (upper limit),≤ 1 µM
same,apparent kcat value,[7]; saturating CoA and 50 μM apo-ACP,about 10 min^−1
"Sfp: B. subtilis protein (26.1 kD) involved in surfactin biosynthesis, shown to be a phosphopantetheinyl transferase (protein) VIGAFDSQPIGIDIEKTKPISLEIAKRFFSKTEYSDLLAKDKDEQTDYFYHLWSMKESFIKQEGKGLSLPLDSFSVRLHQDGQVSIELPDSHSPCYIKTYEVDPGYKMAVCAAHPDFPEDITMVSYEELL",phosphopantetheinylation of PCP at different substrate concentrations,"[1]; 13 nM Sfp, 15 minute reaction, FIG. 13","capable of phosphopantetheinylating a substrate, such as PCP, in a wide range of concentrations"
same,phosphopantetheinylation of His6-PCP,[1],capable of transferring phosphopantetheine groups; also recorded: efficiently catalyzes modification
same,phosphopantetheinylation of EntF,[3],can catalyze modification
same,increase of [14C]-L-valine-holo-SrfB1 covalent complex following incubation with Sfp,[8],about 14 fold
same,phosphopantetheinylation of SrfB1,[9],capable of phosphopantetheinylating; also recorded: efficiently catalyzes modification
